Laboratory results: patent US20240100159A1, “USE OF IL-7R-ALPHA-GAMMA AGONIST PEPTIDES IN CELL MANUFACTURING” (MEDIKINE, INC., priority 2022, published 2024)
Ends that are not written are not given here.

T1: hu-IL-7Rγc subunit (human), P31785
T1 chain: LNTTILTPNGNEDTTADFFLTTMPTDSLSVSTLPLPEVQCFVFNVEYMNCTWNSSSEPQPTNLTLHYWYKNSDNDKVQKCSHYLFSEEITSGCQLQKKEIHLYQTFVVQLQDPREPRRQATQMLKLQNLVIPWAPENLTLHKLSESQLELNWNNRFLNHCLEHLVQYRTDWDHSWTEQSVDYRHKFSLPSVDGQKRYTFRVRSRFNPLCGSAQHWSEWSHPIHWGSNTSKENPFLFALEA

T2: hu-IL-7Rγc subunit (human, UniProt P31785 23-262, limits assumed)
T2 construct: also called human Rγc subunit; common γc receptor
T2 sequence (looked up): T1 chain


Columns and labels:
[1] = target: T1, hu-IL-7Rγc subunit (human), P31785
hu-IL-7Rγc subunit = target: T2, hu-IL-7Rγc subunit

| Binder | IC50 [1] | IC50 (hu-IL-7Rγc subunit) |
| --- | --- | --- |
| IWGRTVVECQDWEGVELCWQ (modifications not checked) [SEQ ID NO 249] | < 100 µM |  |
| YSRELYVQCEDWEGVELCWI (not fully specified (bridges); cysteine pairing not given here, also called Rγc ligand) [SEQ ID NO 260] |  | < 100 µM |
| ILCEEWQGVELCWLEGGGS (not fully specified (bridges); cysteine pairing not given here, also called Rγc ligand) [SEQ ID NO 323] |  | < 100 µM |
| HEAREVVVCQDWYGVELCWQ (modifications not checked) [SEQ ID NO 251] | < 100 µM |  |
| DVVCQNWDGVDLCWH (modifications not checked) [SEQ ID NO 266] | < 100 µM |  |
| HSTVICQDWDGVELCWIEND (modifications not checked) [SEQ ID NO 316] | < 100 µM |  |
| GYGVLCQEWQGVELCWPVQREAGV (modifications not checked) [SEQ ID NO 291] | < 100 µM |  |
| VECEEWGGVELCWLADEVMW (modifications not checked) [SEQ ID NO 315] | < 100 µM |  |
| RTEVECEDWEGVELCWL (modifications not checked) [SEQ ID NO 322] | < 100 µM |  |
| SPSIVCEEWAGVELCWVDYS (modifications not checked) [SEQ ID NO 313] | < 100 µM |  |
| LALRKEVVCQEYYGVELCWI (not fully specified (bridges); cysteine pairing not given here, also called Rγc ligand) [SEQ ID NO 250] |  | < 100 µM |
| GLEIACEDWYGVELCWLRRA (modifications not checked) [SEQ ID NO 290] | < 100 µM |  |
| ERPRSFIECQEWEGVELCWL (modifications not checked) [SEQ ID NO 272] | < 100 µM |  |
| KSQVECQDWEGVELCWVVSE (modifications not checked) [SEQ ID NO 285] | < 100 µM |  |
| RLGVECQEWEGVDLCWISAF (modifications not checked) [SEQ ID NO 300] | < 100 µM |  |
| PVEVRCQEWEGVELCWVVGI (modifications not checked) [SEQ ID NO 304] | < 100 µM |  |
| INCQTWNGVELCWVDEGLYQ (modifications not checked) [SEQ ID NO 294] | < 100 µM |  |
| SAPERWVECEDWQGVELCWV (modifications not checked) [SEQ ID NO 259] | < 100 µM |  |
| IECEEWRGVELCWQ (modifications not checked) [SEQ ID NO 247] | < 100 µM |  |
| PYGVVCQDWAGVELCWVENR (modifications not checked) [SEQ ID NO 292] | < 100 µM |  |
| RPQIECQEWQGVELCWTREE (modifications not checked) [SEQ ID NO 287] | < 100 µM |  |

| Binder | IC50 [1] | IC50 (hu-IL-7Rγc subunit) |
| --- | --- | --- |
| VVCQEWEGVELCWQTGPGAHA (modifications not checked) [SEQ ID NO 308] | < 100 µM |  |
| SAGRQEVVCQDWNGVELCWI (modifications not checked) [SEQ ID NO 263] | < 100 µM |  |
| GQGREVVVCHDWYGVELCWQ (modifications not checked) [SEQ ID NO 264] | < 100 µM |  |
| GNDDSYIVCEEWKGVELCWI (modifications not checked) [SEQ ID NO 278] | < 100 µM |  |
| TDEVSCQEWEGVELCWIERQ (modifications not checked) [SEQ ID NO 303] | < 100 µM |  |
| MVNREVVVCEDWYGVELCWQ (not fully specified (bridges); cysteine pairing not given here, also called Rγc ligand) [SEQ ID NO 252] |  | < 100 µM |
| DVVCQNWEGVDLCWH (modifications not checked) [SEQ ID NO 262] | < 100 µM |  |
| DVECVDWGGVELCWH (not fully specified (bridges); cysteine pairing not given here, also called Rγc ligand) [SEQ ID NO 255] |  | < 100 µM |
| VSCQEWDGVELCWVDGDLAA (modifications not checked) [SEQ ID NO 288] | < 100 µM |  |
| TANQTVVECQVWGGVELCWQ (modifications not checked) [SEQ ID NO 253] | < 100 µM |  |
| ANQNTVVECQDWHGVELCWQ (modifications not checked) [SEQ ID NO 274] | < 100 µM |  |
| LNRSVWIECEEYEGVELCWL (modifications not checked) [SEQ ID NO 280] | < 100 µM |  |
| KITVECQDWDGVELCWPTWI (modifications not checked) [SEQ ID NO 286] | < 100 µM |  |
| EQQVVCQEWNGVELCWIEAG (modifications not checked) [SEQ ID NO 310] | < 100 µM |  |
| TWNMSELECQDWNGVEICWH (modifications not checked) [SEQ ID NO 277] | < 100 µM |  |
| RPEVVCQEWEGVELCWISPL (modifications not checked) [SEQ ID NO 299] | < 100 µM |  |
| DRQVVCEEWDGVELCWIEES (modifications not checked) [SEQ ID NO 297] | < 100 µM |  |
| SVEVVCEEWHGVELCWPVFI (modifications not checked) [SEQ ID NO 318] | < 100 µM |  |
| TLGRTVVECQDWGGVELCWQ (modifications not checked) [SEQ ID NO 267] | < 100 µM |  |
| VECQEWGGVELCWC (modifications not checked) [SEQ ID NO 254] | < 100 µM |  |
| IVCEDWRGVELCWI (modifications not checked) [SEQ ID NO 269] | < 100 µM |  |

| Binder | IC50 [1] | IC50 (hu-IL-7Rγc subunit) |
| --- | --- | --- |
| GDRPKEVVCEDWKGVELCWI (modifications not checked) [SEQ ID NO 271] | < 100 µM |  |
| IECDTSYGVYICWQ (not fully specified (bridges); cysteine pairing not given here, also called Rγc ligand) [SEQ ID NO 246] |  | < 100 µM |
| AHSRQEVVCEEWYGVELCWI (not fully specified (bridges); cysteine pairing not given here, also called Rγc ligand) [SEQ ID NO 258] |  | < 100 µM |
| GYGVVCEDFRGVELCWLERK (not fully specified (bridges); cysteine pairing not given here, also called Rγc ligand) [SEQ ID NO 321] |  | < 100 µM |
| VGIECEEWAGVELCWL (not fully specified (bridges); cysteine pairing not given here, also called Rγc ligand) [SEQ ID NO 324] |  | < 100 µM |
| RTGVECQDWHGVELCWPVWE (not fully specified (bridges); cysteine pairing not given here, also called Rγc ligand) [SEQ ID NO 320] |  | < 100 µM |
| TAEVVCQEWDGVELCWIEVL (modifications not checked) [SEQ ID NO 312] | < 100 µM |  |
| AVCQDWYGVELCWCMQDILD (modifications not checked) [SEQ ID NO 314] | < 100 µM |  |
| RVQVECEDWNGVELCWPVRV (modifications not checked) [SEQ ID NO 296] | < 100 µM |  |
| PEGREVVVCRDWYGVELCWQ (modifications not checked) [SEQ ID NO 248] | < 100 µM |  |
| DWRRSVVECQDWYGVELCWQ (modifications not checked) [SEQ ID NO 265] | < 100 µM |  |
| IMCQEWDGVELCWLERDKAN (modifications not checked) [SEQ ID NO 289] | < 100 µM |  |
| IVCEEYNGVELCWVETSVKP (modifications not checked) [SEQ ID NO 309] | < 100 µM |  |
| GPEVVCEEFNRVELCWVEYN (modifications not checked) [SEQ ID NO 305] | < 100 µM |  |
| IVCEEWRGVELCWL (modifications not checked) [SEQ ID NO 256] | < 100 µM |  |
| KYIVECQEWGGVELCWPEMV (modifications not checked) [SEQ ID NO 306] | < 100 µM |  |
| DFERSYVVCQDWDGVELCWI (modifications not checked) [SEQ ID NO 257] | < 100 µM |  |
| QLGVECQNWRGVELCWVSEI (modifications not checked) [SEQ ID NO 311] | < 100 µM |  |
| RWAVSCQDWQGIELCWPEWD (modifications not checked) [SEQ ID NO 319] | < 100 µM |  |
